Where a chain is given by its changes, count along the chain named. Like-named read-outs stand apart in the source and are kept apart here. Blank lines part the entries; values can stand above or below the binder they belong to.
Columns and labels:
[1] = target: T1, human TrkA extracellular region (33-417) protein containing mouse Fc (human, UniProt P04629 33-417); experiment: ELISA, coated human TrkA (33-417)-mouse Fc, anti-human IgG-HRP
T1 construct: range 33-417
Description: Each well of a 96-well microtiter plate was coated with 50 ng of human TrkA, washed and blocked, then added with serially diluted humanized antibodies, and incubated for 1 hour at room temperature. After washing three times, horseradish peroxidase-conjugated goat anti-human IgG antibody (ThermoFisher, A18817) was added and reacted at room temperature for 1 hour. After washing three time, tetramethylbenzidine (TMB, Biolegend) was added for color development. 1M HCl was used to terminate the color development, and the absorbance values were read at 450 nm with a microplate reader.

[2] = target: T2, human TrkB expressed on CHO cells (TrkB/CHO, ThermoFisher K1491) (human, UniProt Q16620 32-822); experiment: flow cytometry on TrkB/CHO cells, FITC goat anti-human Fc
T2 construct: whole, on cells
Description: (§1) CHO-K1 was used as a negative control. The binding of the humanized antibodies to the four cell lines was detected by flow cytometry.
(§2) The cells were cultured according to the manufacturer's instruction. The cells were harvested in the logarithmic growth phase, re-suspended in flow buffer (PBS+2% FBS, pH 7.4), and added into 96-well plate, 10^5 cells per well (50 µl). 50 µl of 100 µg/mL humanized anti-TrkA antibody was added, incubated at room temperature for 60 min, and centrifuged at 1200 rpm. The supernatant was discarded and the cells were washed 3 times. FITC-labeled goat anti-human Fc antibody (Abeam, ab97224) was diluted to 5 µg/mL with flow buffer and used to re-suspend the cells, incubated at room temperature for 30 min in the dark, centrifuged, and the supernatant was discarded. After washing 3 times, the cells were re-suspended with 7AAD solution (Biolegend, 420403), incubated for 10 min at room temperature, and the binding of the antibody was detected with a flow cytometer (BioRad, ZE5).

[3] = target: T3, full-length human TrkA expressed on cells (human, UniProt P04629 33-796); experiment: flow cytometry titration on TrkA/CHO cells
T3 construct: whole, on cells; also called TrkA/CHO; TrkA/Ba/F3
Description: as §2
The binding curve of the humanized anti-TrkA antibodies and TrkA/CHO cells was detected with the same flow cytometry.

[4] = target: T4, human TrkC expressed on CHO cells (TrkC/CHO, ThermoFisher K1515) (human, UniProt Q16288 32-839); experiment: flow cytometry on TrkC/CHO cells, FITC goat anti-human Fc
T4 construct: whole, on cells
Description: as §1, §2

[5] = target: T3, full-length human TrkA expressed on …; experiment: cell-based or functional assay
[6] = target: T3, full-length human TrkA expressed on …; experiment: cell-based or functional assay; remark: listed apart in the source
[7] = target: T5, human TrkC extracellular region protein (Yiqiao Shenzhou 10048-H03H) (human, UniProt Q16288 32-429); experiment: ELISA, plate coated with human TrkC extracellular region protein, HRP goat anti-mouse Fc detection
T5 construct: extracellular domain; Bought protein
Description: (§3) Example 2: ELISA Detection of the Binding of Murine Anti-TrkA Antibodies to Human TrkA The binding abilities of the anti-TrkA antibodies were detected by using a TrkA extracellular region (33-417) protein comprising human Fc (Beijing ACROBiosystems Co., Ltd., TRA-H5259). Each well of a 96-well microtiter plate was coated with 50 ng of human TrkA, washed and blocked, and then added with serially diluted antibodies, and incubated at room temperature for 1 hour. After washing three times, horseradish peroxidase-conjugated goat anti-mouse Fc antibody (Biolegend, 405306) was added and incubated at room temperature for 1 hour. After washing three time, tetramethylbenzidine (TMB, Biolegend, 421101) was added for color development. 1M HCl was used to terminate the color development, and the absorbance values were read at 450 nm with a microplate reader.
(§4) Example 7: Detection of the Binding of Murine Anti-TrkA Antibodies to TrkA Proteins of the Same Family Each well of a 96-well microtiter plate was coated with 50 ng of human TrkA extracellular region protein, human TrkB extracellular region protein (Beijing Yiqiao Shenzhou Technology Co., Ltd., 10047-H03H), human TrkC extracellular region protein (Beijing Yiqiao Shenzhou Technology Co., Ltd., 10048-H03H). The bindings of the anti-TrkA antibodies to human TrkA and the two proteins of the same family were detected according to the method described in Example 2.

[8] = target: T3, full-length human TrkA expressed on …; experiment: cell-based or functional assay; remark: listed apart in the source
[9] = target: T6, TrkA extracellular region (33-417) protein comprising human Fc (ACROBiosystems TRA-H5259) (human, UniProt P04629 33-417); experiment: competition ELISA, coated TrkA (33-417)-hFc, antibody titrated, competitor biotin-labeled human NGF
T6 construct: range 33-417; Bought fusion protein; also called human TrkA (33-417); human TrkA extracellular region
Description: Each well of a 96-well microtiter plate was coated with 50 ng of TrkA extracellular region (33-417) protein fused to human Fc, washed three times and blocked with 3% BSA for 1 hour. […] Each well was added with 100 μl and incubated at room temperature for 30 minutes. […] Streptavidin-labeled horseradish peroxidase (Streptavidin-HRP, Biolegend, 405210) was added and incubated for 0.5 hours. After washing three times, TMB was added to the plate, and the absorbance at 450 nm was read by a microplate reader after the color development was terminated.

[10] = target: T7, human TrkB extracellular region protein (Yiqiao Shenzhou 10047-H03H) (human, UniProt Q16620 32-430); experiment: ELISA, plate coated with human TrkB extracellular region protein, HRP goat anti-mouse Fc detection
T7 construct: extracellular domain; Bought protein
Description: as §3, §4

[11] = target: T3, full-length human TrkA expressed on …; experiment: cell-based or functional assay; remark: listed apart in the source
[12] = target: T3, full-length human TrkA expressed on …; experiment: cell-based or functional assay; remark: listed apart in the source
[13] = target: T6, TrkA extracellular region (33-417) …; experiment: ELISA, coated human TrkA (33-417)-hFc, anti-mouse Fc-HRP
Description: as §3

[14] = target: fusion protein (fused to human Fc) containing only the portion of human TrkA extracellular region that binds NGF (TrkA 192-402) (ACROBiosystems TRA-H5258) (human) (UniProt P04629); experiment: ELISA, coated human TrkA (192-402)-hFc
[15] = target: T8, mouse TrkA extracellular region fusion protein (fused to human Fc) (Yiqiao Shenzhou 51103-M02H) (mouse, UniProt Q3UFB7 34-420); experiment: ELISA, plate coated with mouse TrkA extracellular region-hFc, HRP goat anti-mouse Fc detection
T8 construct: extracellular domain; Bought fusion protein
Description: as §3
(§5) In addition, the species cross-reactivities of anti-TrkA antibodies were detected with monkey TrkA (Hangzhou Haoyang Biotechnology Co., Ltd., HSP037-05), rat TrkA (Beijing Yiqiao Shenzhou Technology Co., Ltd., 80243-R03H), mouse TrkA (Beijing Yiqiao Shenzhou Technology Co., Ltd., 51103-M02H) extracellular region fusion protein (fused to human Fc).

[16] = target: T6, TrkA extracellular region (33-417) …; experiment: BLI (ForteBio Octet Red96), TrkA (33-417)-hFc captured on anti-human Fc sensor, antibody in solution
Source text: Example 3: Affinity Assay of Murine Anti-TrkA Antibodies Binding to Human TrkA The affinities of the antibodies were detected with Biomolecular Interaction Detection Platform (ForteBio Octet Red96 (PALL)).
Human TrkA extracellular region (33-417) protein containing human Fc tag was fixed onto a chip by using an anti-human Fc capture sensor (Fortebio, 18-5088), and then bound to gradient concentrations of anti-TrkA antibody.

[17] = target: T9, rat TrkA extracellular region fusion protein (fused to human Fc) (Yiqiao Shenzhou 80243-R03H) (rat, UniProt P35739 33-418); experiment: ELISA, plate coated with rat TrkA extracellular region-hFc, HRP goat anti-mouse Fc detection
T9 construct: extracellular domain; Bought fusion protein
Description: as §3, §5

T3 sequence (P04629 33-796): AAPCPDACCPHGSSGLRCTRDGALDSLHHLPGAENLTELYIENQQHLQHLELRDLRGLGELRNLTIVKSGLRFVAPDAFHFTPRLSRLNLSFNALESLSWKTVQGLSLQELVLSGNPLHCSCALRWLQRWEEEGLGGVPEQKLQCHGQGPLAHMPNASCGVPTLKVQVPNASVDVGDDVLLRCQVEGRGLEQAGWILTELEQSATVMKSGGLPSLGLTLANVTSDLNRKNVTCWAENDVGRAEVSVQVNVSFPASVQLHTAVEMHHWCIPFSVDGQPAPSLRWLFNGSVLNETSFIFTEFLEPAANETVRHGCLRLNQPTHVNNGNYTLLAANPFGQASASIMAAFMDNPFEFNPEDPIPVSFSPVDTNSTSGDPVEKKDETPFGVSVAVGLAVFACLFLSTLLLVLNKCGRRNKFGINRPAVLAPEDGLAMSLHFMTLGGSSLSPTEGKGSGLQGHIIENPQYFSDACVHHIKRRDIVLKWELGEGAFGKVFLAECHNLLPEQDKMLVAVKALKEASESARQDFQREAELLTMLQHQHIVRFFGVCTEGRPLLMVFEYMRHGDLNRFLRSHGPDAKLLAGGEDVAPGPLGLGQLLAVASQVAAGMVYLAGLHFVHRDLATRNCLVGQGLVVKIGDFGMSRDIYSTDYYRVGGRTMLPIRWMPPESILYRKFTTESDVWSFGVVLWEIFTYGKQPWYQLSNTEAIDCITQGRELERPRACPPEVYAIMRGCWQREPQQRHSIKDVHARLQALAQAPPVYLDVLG
T4 sequence (Q16288 32-839): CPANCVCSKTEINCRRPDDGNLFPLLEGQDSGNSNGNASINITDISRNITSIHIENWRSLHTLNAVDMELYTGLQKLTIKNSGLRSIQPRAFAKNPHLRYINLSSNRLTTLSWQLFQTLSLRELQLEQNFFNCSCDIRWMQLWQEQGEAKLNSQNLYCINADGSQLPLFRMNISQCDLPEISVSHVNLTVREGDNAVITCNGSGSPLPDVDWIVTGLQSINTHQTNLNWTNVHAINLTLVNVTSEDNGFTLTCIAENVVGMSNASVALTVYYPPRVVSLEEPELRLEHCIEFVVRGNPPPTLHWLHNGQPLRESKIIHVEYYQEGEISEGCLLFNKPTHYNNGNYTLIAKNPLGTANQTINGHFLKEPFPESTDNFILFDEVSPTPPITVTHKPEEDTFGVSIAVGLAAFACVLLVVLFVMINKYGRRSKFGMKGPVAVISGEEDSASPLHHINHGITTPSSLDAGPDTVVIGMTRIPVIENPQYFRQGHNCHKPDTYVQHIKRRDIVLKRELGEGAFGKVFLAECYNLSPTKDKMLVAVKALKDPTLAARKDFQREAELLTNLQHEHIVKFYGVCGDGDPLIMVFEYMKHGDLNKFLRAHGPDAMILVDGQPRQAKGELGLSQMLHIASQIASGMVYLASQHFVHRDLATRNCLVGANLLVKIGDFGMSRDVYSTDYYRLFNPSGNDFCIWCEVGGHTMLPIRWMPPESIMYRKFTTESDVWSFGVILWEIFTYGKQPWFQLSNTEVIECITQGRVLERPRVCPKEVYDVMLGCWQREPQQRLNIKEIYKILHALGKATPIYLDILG
T6 sequence (P04629 33-417 limits assumed): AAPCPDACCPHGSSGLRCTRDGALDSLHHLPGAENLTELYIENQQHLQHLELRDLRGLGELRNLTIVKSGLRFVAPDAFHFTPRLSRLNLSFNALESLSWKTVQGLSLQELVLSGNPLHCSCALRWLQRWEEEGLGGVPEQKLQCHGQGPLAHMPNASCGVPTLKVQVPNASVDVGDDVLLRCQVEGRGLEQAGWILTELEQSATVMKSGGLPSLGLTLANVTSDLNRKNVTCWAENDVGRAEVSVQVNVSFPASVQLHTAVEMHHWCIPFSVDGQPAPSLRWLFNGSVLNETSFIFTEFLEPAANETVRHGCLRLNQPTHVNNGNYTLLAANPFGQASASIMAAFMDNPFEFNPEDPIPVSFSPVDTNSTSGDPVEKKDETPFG
T1 sequence (P04629 33-417 limits assumed): as above
T2 sequence (Q16620 32-822): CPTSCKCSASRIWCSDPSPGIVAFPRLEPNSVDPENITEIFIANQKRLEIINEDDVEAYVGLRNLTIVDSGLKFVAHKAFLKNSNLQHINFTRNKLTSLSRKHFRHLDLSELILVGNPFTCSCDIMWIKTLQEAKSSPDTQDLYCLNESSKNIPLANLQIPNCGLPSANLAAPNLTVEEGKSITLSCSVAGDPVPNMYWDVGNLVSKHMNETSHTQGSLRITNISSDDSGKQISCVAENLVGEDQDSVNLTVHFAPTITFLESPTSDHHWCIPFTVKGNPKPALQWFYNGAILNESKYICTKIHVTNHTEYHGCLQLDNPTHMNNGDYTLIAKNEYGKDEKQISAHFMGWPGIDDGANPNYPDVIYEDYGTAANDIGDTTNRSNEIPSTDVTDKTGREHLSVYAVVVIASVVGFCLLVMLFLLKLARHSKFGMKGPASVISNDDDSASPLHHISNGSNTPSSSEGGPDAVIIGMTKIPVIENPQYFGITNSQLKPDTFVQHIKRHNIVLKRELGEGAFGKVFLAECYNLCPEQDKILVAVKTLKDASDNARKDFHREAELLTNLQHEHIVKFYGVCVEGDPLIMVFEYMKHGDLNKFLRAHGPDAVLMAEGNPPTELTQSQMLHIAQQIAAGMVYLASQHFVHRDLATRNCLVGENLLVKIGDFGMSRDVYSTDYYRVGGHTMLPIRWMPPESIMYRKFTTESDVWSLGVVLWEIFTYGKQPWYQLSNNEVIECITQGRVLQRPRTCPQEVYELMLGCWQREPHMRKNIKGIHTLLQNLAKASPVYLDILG
T8 sequence (Q3UFB7 34-420, stated change not applied): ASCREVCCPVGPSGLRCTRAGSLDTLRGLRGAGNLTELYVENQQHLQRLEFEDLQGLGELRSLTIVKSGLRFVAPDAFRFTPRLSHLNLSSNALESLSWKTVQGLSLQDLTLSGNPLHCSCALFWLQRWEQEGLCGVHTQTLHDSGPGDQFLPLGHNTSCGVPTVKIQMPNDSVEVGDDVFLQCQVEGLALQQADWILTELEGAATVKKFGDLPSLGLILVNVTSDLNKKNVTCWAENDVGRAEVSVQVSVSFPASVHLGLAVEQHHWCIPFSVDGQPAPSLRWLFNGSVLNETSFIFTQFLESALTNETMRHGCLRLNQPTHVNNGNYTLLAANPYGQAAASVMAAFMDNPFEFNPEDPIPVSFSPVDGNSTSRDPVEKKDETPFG
Sequence of fusion protein (fused to human Fc) containing only the portion of human TrkA extracellular region that binds NGF (TrkA 192-402) (ACROBiosystems TRA-H5258) (human) (P04629 192-402 limits assumed, form in doubt): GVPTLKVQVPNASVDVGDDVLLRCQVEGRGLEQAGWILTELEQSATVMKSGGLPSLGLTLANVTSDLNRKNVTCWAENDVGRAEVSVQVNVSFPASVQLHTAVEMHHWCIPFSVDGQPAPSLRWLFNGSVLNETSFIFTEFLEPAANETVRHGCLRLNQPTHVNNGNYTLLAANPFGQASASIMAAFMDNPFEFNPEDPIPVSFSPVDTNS
T7 sequence (Q16620 32-430): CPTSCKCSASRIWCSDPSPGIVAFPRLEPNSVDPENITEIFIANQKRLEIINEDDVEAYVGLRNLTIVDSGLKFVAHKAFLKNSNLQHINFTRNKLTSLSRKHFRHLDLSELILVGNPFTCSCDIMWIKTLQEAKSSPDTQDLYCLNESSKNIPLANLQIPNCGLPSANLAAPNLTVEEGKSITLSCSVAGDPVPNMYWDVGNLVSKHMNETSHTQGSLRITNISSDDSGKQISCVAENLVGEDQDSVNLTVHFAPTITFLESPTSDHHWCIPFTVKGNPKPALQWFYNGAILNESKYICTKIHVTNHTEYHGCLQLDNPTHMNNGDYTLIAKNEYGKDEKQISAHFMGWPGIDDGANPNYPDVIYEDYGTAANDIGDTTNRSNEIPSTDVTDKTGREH
T9 sequence (P35739 33-418, stated change not applied): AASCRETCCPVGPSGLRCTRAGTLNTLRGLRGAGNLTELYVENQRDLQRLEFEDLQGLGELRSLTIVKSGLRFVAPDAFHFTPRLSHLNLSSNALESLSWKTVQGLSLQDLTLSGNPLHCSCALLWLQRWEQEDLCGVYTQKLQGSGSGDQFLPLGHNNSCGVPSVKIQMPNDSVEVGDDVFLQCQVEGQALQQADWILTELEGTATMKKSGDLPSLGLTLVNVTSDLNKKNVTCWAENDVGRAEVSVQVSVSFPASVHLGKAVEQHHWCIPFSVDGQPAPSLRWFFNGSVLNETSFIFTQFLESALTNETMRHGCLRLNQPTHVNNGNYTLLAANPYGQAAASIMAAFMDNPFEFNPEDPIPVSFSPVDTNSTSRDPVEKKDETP

- EC50 [1]: 0.062 nM
- binding result [2]: no binding
- EC50 [3]: 0.49 nM
- binding result [4]: no binding
- IC50 of inhibiting NGF-induced TF-1 cell proliferation [5]: 1.55 nM
- IC50 of inhibiting NGF-induced TrkA/Ba/F3 cell proliferation [6]: 2.92 nM
B1: human-mouse chimeric antibody 42F5-Chi (antibody, V domains shown)
VH: QVQLQQPGAELVKPGASVKLSCKSSGYTFTNYWMHWVRQRPGQGLEWIGEIYPNNGRVNYNEKFKNRATLTVDISSSTAYMQLSSLTSEDSAVYYCARSRYDPMEDWGQGTSVTVSS
VL: QVVLTQSPAIMSASPGEKVTMTCSASSSVGYMHWYQQKSGTSPKRWIYDTSKLASGVPTRFSGSGSGTSYSLTISSMEAEDAATYFCQQWSSIPLTFGSGTRLEIK

- binding result [7]: no binding (tested: 66.67 nM)
- IC50 of inhibiting NGF-induced TrkA/Ba/F3 cell proliferation [8]: 0.738 nM
- IC50 [9]: 2.05 nM
- binding result [10]: no binding (tested: 66.67 nM)
- IC50 of inhibiting NGF-induced TF-1 cell proliferation [11]: 1.46 nM
- inhibition of NGF-induced TrkA/Ba/F3 cell proliferation at 2.5 µg/mL (16.67 nM) or higher [12]: 100%
- EC50 [13]: 0.187 nM
- EC50 [14]: 0.234 nM
- binding result [15]: binds
- Kd [16]: 0.00142 nM
- koff [16]: 1.26e-06 s⁻¹
- kon [16]: 889000 M⁻¹ s⁻¹
- binding result [17]: binds
B2: anti-TrkA antibody 42A11 (antibody, V domains shown)
VH: QVQLQQPGAELVKPGASVKLSCKASGYTFTNYWMHWVKQRPGQGLEWIGEIYPSNGRTNYNEKFKTKATLTVDKSSSTAYMHLSSLTSEDSAVYYCAGSRYDAMDFWGQGTSVTVSS
VL: QIVLTQSPAIMSASPGEKVTMTCSASSIISYMHWYQQKSGTSPKRWIYDTSKLASGVPARFSGSGSGTSYSLTISGMEAEDAATYYCHQWTSNPLTFGGGTKLELK
notes: Murine monoclonal antibody purified from hybridoma medium by protein G

- EC50 [1]: 0.061 nM
- binding result [2]: no binding
- EC50 [3]: 0.605 nM
- binding result [4]: no binding
- IC50 of inhibiting NGF-induced TF-1 cell proliferation [5]: 1.57 nM
- IC50 of inhibiting NGF-induced TrkA/Ba/F3 cell proliferation [6]: 2.97 nM
B3: humanized anti-TrkA antibody 42F5-01 (antibody, V domains shown)
VH: QVQLVQSGAEVKKPGASVKVSCKSSGYTFTNYWMHWVRQAPGQGLEWMGEIYPNNGRVNYNEKFKNRVTMTVDISISTAYMELSRLRSDDTAVYYCARSRYDPMEDWGQGTTVTVSS
VL: DVQLTQSPSSLSASVGDRVTITCSASSSVGYMHWYQQKPGKAPKRLIYDTSKLASGVPSRFSGSGSGTDYTLTISSLQPEDFATYFCQQWSSIPLTFGQGTRLEIK
notes: VH grafted to human IgG4 heavy chain constant region, VL to human Kappa light chain constant region; also called 43F5-01 [sic]

- EC50 [1]: 0.05 nM
- binding result [2]: no binding
- EC50 [3]: 0.513 nM
- binding result [4]: no binding
- IC50 of inhibiting NGF-induced TF-1 cell proliferation [5]: 1.4 nM
- IC50 of inhibiting NGF-induced TrkA/Ba/F3 cell proliferation [6]: 2.81 nM
B4: humanized anti-TrkA antibody 42F5-11 (antibody, V domains shown)
VH: B3 VH with M48I, V68A, M70L
VL: EVVLTQSPATLSLSPGERATLSCSASSSVGYMHWYQQKPGQAPRRWIYDTSKLASGVPARFSGSGSGTDYTLTISSLEPEDAAVYFCQQWSSIPLTFGQGTRLEIK
notes: VH grafted to human IgG4 heavy chain constant region, VL to human Kappa light chain constant region

- EC50 [1]: 0.072 nM
- binding result [2]: no binding
- EC50 [3]: 0.68 nM
- binding result [4]: no binding
- IC50 of inhibiting NGF-induced TF-1 cell proliferation [5]: 1.48 nM
- IC50 of inhibiting NGF-induced TrkA/Ba/F3 cell proliferation [6]: 4.42 nM
B5: humanized anti-TrkA antibody 42F5-05 (antibody, V domains shown)
VH: B3 VH
VL: B3 VL with D1Q
notes: as for B4

- EC50 [1]: 0.071 nM
- binding result [2]: no binding
- EC50 [3]: 0.547 nM
- binding result [4]: no binding
- IC50 of inhibiting NGF-induced TF-1 cell proliferation [5]: 1.94 nM
- IC50 of inhibiting NGF-induced TrkA/Ba/F3 cell proliferation [6]: 3.27 nM
B6: humanized anti-TrkA antibody 42F5-14 (antibody, V domains shown)
VH: B3 VH with N55Q
VL: B3 VL
notes: 42F5-01 with NG55-56 of the VH mutated to QG55-56

- EC50 [1]: 0.087 nM
- binding result [2]: no binding
- EC50 [3]: 0.518 nM
- binding result [4]: no binding
- IC50 of inhibiting NGF-induced TF-1 cell proliferation [5]: 0.867 nM
- IC50 of inhibiting NGF-induced TrkA/Ba/F3 cell proliferation [6]: 3.31 nM
B7: humanized anti-TrkA antibody 42F5-13 (antibody, V domains shown)
VH: B3 VH with N55S
VL: B3 VL
notes: 42F5-01 with NG55-56 of the VH mutated to SG55-56

- EC50 [1]: 0.055 nM
- binding result [2]: no binding
- EC50 [3]: 0.535 nM
- binding result [4]: no binding
- IC50 of inhibiting NGF-induced TF-1 cell proliferation [5]: 1.65 nM
- IC50 of inhibiting NGF-induced TrkA/Ba/F3 cell proliferation [6]: 3.54 nM
B8: humanized anti-TrkA antibody 42F5-08 (antibody, V domains shown)
VH: B3 VH with A16S, M48I, V68A, M70L, I76T, R85S, D89E
VL: B3 VL with D1Q, L46W
notes: VH grafted to human IgG4 heavy chain constant region, VL to human Kappa light chain constant region; also called 43F5-08 [sic]

— patent US12590158 (XIYUAN ANJIAN MEDICINE SHANGHAI, dated 2026)
